Measurements as given in patent US7977317B2, “Compositions and methods for modulating blood-brain barrier transport” (Raptor Pharmaceutical Inc., priority 2001, dated 2011).

Legend:
LRP1B [1] = assay: RT-PCR after p97 and RAP treatments in U-87 cells: LRP1B; assay type: cell-based, human; details: 72 hours, RT-PCR (FIG. 35)
Protocol: FIG. 34. Effect of p97 and RAP treatments in U-87 cells. A. Cells (2×10^5) were plated onto six-multiwell microplates and grown at 37° C. under 5% CO2 with optimal culture medium supplemented with serum for 4 days. Treatment was performed in serum free medium for 72 hours. RNA isolation and RT-PCR were performed as described in the Examples. B. LRP/LRP1B was immunodetected in cells lysates as described in the Examples. […] (N=2 for p97 treatment), (n=1 for RAP treatment)
(§1) FIG. 35. Effect of p97 and RAP treatments in U-87 cells (RT-PCR). Cells (2×10^5) were plated onto six-multiwell microplates and grown at 37° C. under 5% CO2 with optimal culture medium supplemented with serum for 4 days. Treatment was performed in serum free medium for 72 hours. RNA isolation and RT-PCR were performed as described in the Examples. The amplified PCR products were electrophoresed on a 2% agarose gel and visualized under ultraviolet light. (n=2 for p97), (n=1 for RAP)
(§2) RNA extraction. Cells in six-wells plate or in 75 cm^2 plastic tissue culture flasks were grown at 37° C. under 5% CO2 with optimal culture medium to 80-90% confluence. Total cellular RNA was preserved in Trizol (Gibco BRL, Burlington, ON). The solution are frozen at −80° C. until extraction. The solution was defroze and mixed with 5:1 chloroform for 3 minutes at room temperature. The suspension was centrifugated at 12000 g at 4° C. […]

LRP1B [2] = assay: RT-PCR after p97 treatment in MG1391 fibroblast cells: LRP1B; assay type: cell-based; details: fibroblast cell line MG1391, RT-PCR (FIGS. 40 and 41)
Protocol: FIG. 39 show the expression of members of the LDL receptor family in MG1391. RT-PCR. RT-PCR was performed for members of the LDL-R family: LRP, LRP1B, megalin, LDL, VLDL, LRP8, LR11, LRP5 and cubulin. DNA (cDNA) synthesis was performed with 1 μg of total RNA using a cDNA one step synthesis kit (Invitrogen, USA) following the manufacturer's protocol. (1× of reaction mix, RNA 1 μg, 0.2 μM of both primers, 1 μl of RT/Platinum Tag mix). The cDNA generated was amplified using primers produced with MacVector 7.0 (Oxford molecular Ltd, Oxford, UK). All the subsequent assays were then performed under conditions that produced amplifications of cDNA within a linear range. RT inverse-transcription was performed at 50° C. for 30 min. PCR amplification for 35 or 40 cycles for all was performed as follows: denaturation at 94° C. for 30 s, annealing at 60° C. for 30 s and extension at 72° C. for 1 min. Finalisation stage was performed at 72° C. for 5 min. Tubes containing all the ingredients except templates were included in all runs and served as negative controls. The amplified PCR products were electrophoresed on a 1% agarose gel in TAE (40 mM Tris, […], 1 mM EDTA, […] Ethidum bromide) and were visualized under ultraviolet light followed by densitrometric analysis.

Megalin = assay: RT-PCR after p97 treatment in U-87 cells: Megalin; assay type: cell-based, human; details: 72 hours, RT-PCR (FIG. 35)
Protocol: as §1
FIG. 38. Effect of p97 and RAP treatments in U-87 cells on expression of cubulin (A), P97 (B) and Megalin (C). The amplified PCR products were electrophoresed on a 2% agarose gel and visualized under ultraviolet light. (n=1). Quantification was by densitometry of p97 and RAP treatments on the RNA levels of LRP1B, LRP, LDL-R, cubilin, endogenous p97 and megalin. Results are expressed as ratios of RNA levels between control and treated U-87 cells.
as §2

U-87 cells = assay: Morphology of U-87 cells after p97 treatment; assay type: cell-based, human; details: FIG. 33
BBCE = assay: Transcellular co-localization of p97 with clathrin in BBCE; assay type: cell-based, bovine; details: clathrin versus caveolin
Text: FIG. 21 depicts the transcellular co-localization of p97 and clathrin turning transcytosis.
Transcellular localization of p97 and clathrin was examined in BBCE as the p97 moved from the luminal to abluminal side of the BBB model (FIG. 21). The data are indicative of a co-migration of p97 and clathrin. As a control for the effect of the Alexa label, the behavior of p97 and p97-alexa were compared. (data not shown).

B1: p97: recombinant human melanotransferrin (p97), provided by Synapse Technologies (protein, UniProt P08582 20-709, looked up)
Melanotransferrin: GMEVRWCATSDPEQHKCGNMSEAFREAGIQPSLLCVRGTSADHCVQLIAAQEADAITLDGGAIYEAGKEHGLKPVVGEVYDQEVGTSYYAVAVVRRSSHVTIDTLKGVKSCHTGINRTVGWNVPVGYLVESGRLSVMGCDVLKAVSDYFGGSCVPGAGETSYSESLCRLCRGDSSGEGVCDKSPLERYYDYSGAFRCLAEGAGDVAFVKHSTVLENTDGKTLPSWGQALLSQDFELLCRDGSRADVTEWRQCHLARVPAHAVVVRADTDGGLIFRLLNEGQRLFSHEGSSFQMFSSEAYGQKDLLFKDSTSELVPIATQTYEAWLGHEYLHAMKGLLCDPNRLPPYLRWCVLSTPEIQKCGDMAVAFRRQRLKPEIQCVSAKSPQHCMERIQAEQVDAVTLSGEDIYTAGKTYGLVPAAGEHYAPEDSSNSYYVVAVVRRDSSHAFTLDELRGKRSCHAGFGSPAGWDVPVGALIQRGFIRPKDCDVLTAVSEFFNASCVPVNNPKNYPSSLCALCVGDEQGRNKCVGNSQERYYGYRGAFRCLVENAGDVAFVRHTTVFDNTNGHNSEPWAAELRSEDYELLCPNGARAEVSQFAACNLAQIPPHAVMVRPDTNIFTVYGLLDKAQDLFGDDHNKNGFKMFDSSNYHGQDLLFKDATVRAVPVGEKTTYRGWLGLDYVAALEGMSSQQC
B1 was tested, and the “Expression of the LRP1B receptor” value (LRP1B [1]) was “induces the expression”, the “Expression of LRP1B in MG1391 cells” value (LRP1B [2]) was “particularly induces the expression” and the “Expression of the Megalin receptor” value (Megalin) was “not”. For the same molecule, the “Effect on the morphology of U-87 cells” value (U-87 cells) was “no discernable effect on the morphology” and the Co-localization during endocytosis/transcytosis (BBCE) was “co-localize with clathrin”.
